Measurements: the supplement of paper PMC7125110
± gives the standard error. This sample holds only a part of the variants without activity.

B1: glmS ribozyme (parent)
chain: AUAAAAGCGCCAGAACUACAGAAAUGUAGUUGACGAGGAGGAGGUUUAUCGAAUUUUCGGCGGAUGCCUCCAAA

How the values were obtained:
Conditions in all cases: with glucosamine-6-phosphate
glucosamine-6-phosphate [1] = variants of: B1; assay: self-cleavage kobs at 40 uM GlcN6P; higher = faster cleavage; RNA array
How it was run: (§1)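 Glucosamine-6-phosphate in HEPES/KCl/Mg(OAc)2 buffer, at 40 μM to 10 mM, was flowed over barcoded ribozyme variants transcribed in situ by E. coli RNA polymerase on sequenced MiSeq chips. Tracking was through a hybridised Cy3 probe at 37 °C. kobs, kcat and KM came from exponential decay fits and weighted Michaelis–Menten fits of normalised per-tile medians.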

glucosamine-6-phosphate [2] = variants of: B1; assay: self-cleavage kobs at 10000 uM GlcN6P; higher = faster cleavage; RNA array
How it was run: as §1

glucosamine-6-phosphate [3] = variants of: B1; assay: self-cleavage kobs at 160 uM GlcN6P; higher = faster cleavage; RNA array
How it was run: as §1

glucosamine-6-phosphate [4] = variants of: B1; assay: self-cleavage kobs at 640 uM GlcN6P; higher = faster cleavage; RNA array
How it was run: as §1

glucosamine-6-phosphate [5] = variants of: B1; assay: self-cleavage kobs at 2500 uM GlcN6P; higher = faster cleavage; RNA array
How it was run: as §1

Variant	self-cleavage kobs at 40 uM GlcN6P (glucosamine-6-phosphate [1]) [s⁻¹]	self-cleavage kobs at 10000 uM GlcN6P (glucosamine-6-phosphate [2]) [s⁻¹]	self-cleavage kobs at 160 uM GlcN6P (glucosamine-6-phosphate [3]) [s⁻¹]	self-cleavage kobs at 640 uM GlcN6P (glucosamine-6-phosphate [4]) [s⁻¹]	self-cleavage kobs at 2500 uM GlcN6P (glucosamine-6-phosphate [5]) [s⁻¹]
G29A G51A	< 1e-05	< 1e-05			
G29A A33G A36C U45C	< 1e-05				
G29A A36G	< 1e-05		< 1e-05	< 1e-05	< 1e-05
U30G C61A	< 1e-05	< 1e-05			
U30G C61U	< 1e-05			< 1e-05	< 1e-05
U30G C61G	< 1e-05	< 1e-05			
U30C C34U	< 1e-05			< 1e-05	
G29U U30G G43C C68G	0.000152 ± 2.6e-05	0.0065 ± 0.0015			
U30C G41C C61A C71U	< 1e-05	< 1e-05			
U31A G59A G62A	< 1e-05				
G29C A42C G43C U54A	< 1e-05				
U30C C61U	< 1e-05		< 1e-05		
U30C C61A	< 1e-05	< 1e-05			
U30A G35A G59A C71G	< 1e-05				< 1e-05
U30G U45A A64C	< 1e-05	7e-05 ± 1.7e-05			
U30C G59A C68U	< 1e-05	< 1e-05			
G26U U31G G44U C50U	< 1e-05	< 1e-05			< 1e-05
G29C C67U	2.43e-05 ± 8.3e-06	0.000975 ± 0.0002		0.000126 ± 1.3e-05	0.000201 ± 2.6e-05
U30A A39U G62U	< 1e-05				
G29A A53U C58G	< 1e-05	5.28e-05 ± 2.2e-05			
U30A A39U C67G C68G	0.000113 ± 2.1e-05	8.62e-05 ± 1.7e-05			
U30A G63C	< 1e-05	< 1e-05	< 1e-05		< 1e-05
U31A A64G	0.000322 ± 8.5e-05	0.0255 ± 0.0096	0.000708 ± 0.0002	0.00331 ± 0.0006	0.00394 ± 0.0012
U30G U69C	0.000101 ± 2.9e-05	0.000535 ± 0.00011		0.00045 ± 0.00019	6.49e-05 ± 3.1e-05
G29U G62U	< 1e-05	< 1e-05	< 1e-05	< 1e-05	< 1e-05
G29U G62C	< 1e-05	< 1e-05		< 1e-05	< 1e-05
U30G A39G C50G C68G	0.00025 ± 6.5e-05	0.000218 ± 4.7e-05			

Variant	self-cleavage kobs at 40 uM GlcN6P (glucosamine-6-phosphate [1]) [s⁻¹]	self-cleavage kobs at 10000 uM GlcN6P (glucosamine-6-phosphate [2]) [s⁻¹]	self-cleavage kobs at 160 uM GlcN6P (glucosamine-6-phosphate [3]) [s⁻¹]	self-cleavage kobs at 640 uM GlcN6P (glucosamine-6-phosphate [4]) [s⁻¹]	self-cleavage kobs at 2500 uM GlcN6P (glucosamine-6-phosphate [5]) [s⁻¹]
G29U A39U	0.000106 ± 1e-05	0.0042 ± 0.00041	0.000145 ± 2.1e-05	0.000784 ± 0.00013	0.00196 ± 0.00026
G29U G41U G51A	< 1e-05				< 1e-05
G29U U49A U57C C70G	< 1e-05				
U31A G32U A36U G59A	< 1e-05	< 1e-05			
U30G A52C U65G C67G C70U	< 1e-05				
U30A G37U G44U U45A C70U	< 1e-05	< 1e-05			
G26A C67U	0.000613 ± 0.00023				
U30A C34U	< 1e-05		< 1e-05	< 1e-05	< 1e-05
G29U A52C G66A	< 1e-05				
G29A A48G U49G G62C	< 1e-05		< 1e-05		< 1e-05
U30G U49C A64C	< 1e-05	< 1e-05	< 1e-05		
U30C G35A C67U	< 1e-05				
U30G G44C	< 1e-05	3.93e-05 ± 1.1e-05	< 1e-05		
U30G U55G C71U	0.00027 ± 5e-05	0.00591 ± 0.001		0.00135 ± 0.00022	0.00316 ± 0.0014
G29C A36G G51C	< 1e-05				
G29C G41U A48G U49C G60C	< 1e-05	< 1e-05			
U30G G44U U45C	< 1e-05	< 1e-05			
G29A U56C G59A C71A	< 1e-05	< 1e-05			
G29A C34U	< 1e-05				
A28G G43C U45A C67G	< 1e-05				
U31A A52G C67G	6.56e-05 ± 1.9e-05	9.04e-05 ± 1.2e-05			
U30G G60C	< 1e-05	< 1e-05		< 1e-05	
G29U G38U U55G	< 1e-05	< 1e-05			< 1e-05
G29C G44U	< 1e-05		< 1e-05	< 1e-05	
U31A C50U	< 1e-05		< 1e-05		
U31A U45A G62U C68A	< 1e-05				
